Experimental data published in US20200190189A1 (Adimab, published 2020).
Numbering of substitutions follows the chain as printed.

T1: Cynomolgus CD3εδ heterodimeric Fc fusion (Cy CD3εδ Fc) (cynomolgus)
T1 chain 1: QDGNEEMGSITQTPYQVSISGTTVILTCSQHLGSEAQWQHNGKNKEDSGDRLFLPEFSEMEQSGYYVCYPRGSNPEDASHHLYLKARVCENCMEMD
T1 chain 2: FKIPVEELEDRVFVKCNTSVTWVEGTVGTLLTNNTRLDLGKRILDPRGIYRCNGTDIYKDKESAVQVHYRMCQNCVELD

T2: Human CD3εδ heterodimeric Fc fusion (Hu CD3εδ Fc) (human)
T2 chain 1: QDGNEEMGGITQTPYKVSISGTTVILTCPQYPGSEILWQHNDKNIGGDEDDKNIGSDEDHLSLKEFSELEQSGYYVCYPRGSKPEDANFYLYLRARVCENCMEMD
T2 chain 2: T1 chain 2 with V5I, K15N, V20I, T32S, N33D, N34I, A64T, N74S

B1: ADI-22523 IgG1 (antibody, V domains shown)
VH: QVQLVQSGAEVKKPGASVKVSCKASGFNIKDYYMHWVRQAPGQRLEWMGWIDLENGNTIYDPKFQGRVTITRDTSASTAYMELSSLRSEDTAVYYCARDGYGRYFYDVWGQGTLVTVSS
VL: DIVMTQSPDSLAVSLGERATINCKSSQSLLNSRTGKNYLAWYQQKPGQPPKLLIYWASTRESGVPDRFSGSGSGTDFTLTISSLQAEDVAVYYCKQSYSRRTFGGGTKVEIK
B2: ADI-26906 IgG1 (antibody, V domains shown)
VH: B1 VH with G56A, P62A, G100A
VL: B1 VL with S32A
B3: ADI-26908 IgG1 (antibody, V domains shown)
VH: B1 VH with N55E, P62A, G100A
VL: B1 VL with S32A
B4: ADI-26913 IgG1 (antibody, V domains shown)
VH: B1 VH with G56A, P62A, G100Q
VL: B1 VL with S32A
B5: ADI-26915 IgG1 (antibody, V domains shown)
VH: B1 VH with N55E, P62A, G100V, Y101L
VL: B1 VL with S32A

Columns and labels:
[1] = target: T1, Cynomolgus CD3εδ heterodimeric Fc …; assay: IgG, avid; method not named at the table (ForteBio BLI in Methods)
[2] = target: T2, Human CD3εδ heterodimeric Fc fusion (Hu …); assay: as above

Binder | Kd [1] [nM] | Kd [2] [nM]
B1 | 0.22 | 0.2
B2 | 0.25 | 1.6
B3 | 0.31 | 1.5
B4 | 0.4 | 2.2
B5 | 2.6 | 3.3
